In IntAct's records for PubMed 34637754:

B1: Autism susceptibility gene 2 protein (Homo sapiens), Q8WXX7 (parent)
chain: MDGPTRGHGLRKKRRSRSQRDRERRSRGGLGAGAAGGGGAGRTRALSLASSSGSDKEDNGKPPSSAPSRPRPPRRKRRESTSAEEDIIDGFAMTSFVTFEALEKDVALKPQERVEKRQTPLTKKKREALTNGLSFHSKKSRLSHPHHYSSDRENDRNLCQHLGKRKKMPKALRQLKPGQNSCRDSDSESASGESKGFHRSSSRERLSDSSAPSSLGTGYFCDSDSDQEEKASDASSEKLFNTVIVNKDPELGVGTLPEHDSQDAGPIVPKISGLERSQEKSQDCCKEPIFEPVVLKDPCPQVAQPIPQPQTEPQLRAPSPDPDLVQRTEAPPQPPPLSTQPPQGPPEAQLQPAPQPQVQRPPRPQSPTQLLHQNLPPVQAHPSAQSLSQPLSAYNSSSLSLNSLSSSRSSTPAKTQPAPPHISHHPSASPFPLSLPNHSPLHSFTPTLQPPAHSHHPNMFAPPTALPPPPPLTSGSLQVAGHPAGSTYSEQDILRQELNTRFLASQSADRGASLGPPPYLRTEFHQHQHQHQHTHQHTHQHTFTPFPHAIPPTAIMPTPAPPMFDKYPTKVDPFYRHSLFHSYPPAVSGIPPMIPPTGPFGSLQGAFQPKTSNPIDVAARPGTVPHTLLQKDPRLTDPFRPMLRKPGKWCAMHVHIAWQIYHHQQKVKKQMQSDPHKLDFGLKPEFLSRPPGPSLFGAIHHPHDLARPSTLFSAAGAAHPTGTPFGPPPHHSNFLNPAAHLEPFNRPSTFTGLAAVGGNAFGGLGNPSVTPNSMFGHKDGPSVQNFSNPHEPWNRLHRTPPSFPTPPPWLKPGELERSASAAAHDRDRDVDKRDSSVSKDDKERESVEKRHSSHPSPAPVLPVNALGHTRSSTEQIRAHLNTEAREKDKPKERERDHSESRKDLAADEHKAKEGHLPEKDGHGHEGRAAGEEAKQLARVPSPYVRTPVVESARPNSTSSREAEPRKGEPAYENPKKSSEVKVKEERKEDHDLPPEAPQTHRASEPPPPNSSSSVHPGPLASMPMTVGVTGIHPMNSISSLDRTRMMTPFMGISPLPGGERFPYPSFHWDPIRDPLRDPYRELDIHRRDPLGRDFLLRNDPLHRLSTPRLYEADRSFRDREPHDYSHHHHHHHHPLSVDPRREHERGGHLDERERLHMLREDYEHTRLHSVHPASLDGHLPHPSLITPGLPSMHYPRISPTAGNQNGLLNKTPPTAALSAPPPLISTLGGRPVSPRRTTPLSAEIRERPPSHTLKDIEAR
B2: Autism susceptibility gene 2 protein homolog (Mus musculus), A0A087WPF7 (parent)
chain: MDGPTRGHGLRKKRRSRSQRDRERRSRAGLGTGAAGGIGAGRTRAPSLASSSGSDKEDNGKPPSSAPSRPRPPRRKRRESTSAEEDIIDGFAMTSFVTFEALEKDVAVKPQERAEKRQTPLTKKKREALTNGLSFHSKKSRLSHSHHYSSDRENDRNLCQHLGKRKKMPKGLRQLKPGQNSCRDSDSESASGESKGFQRSSSRERLSDSSAPSSLGTGYFCDSDSDQEEKASDASSEKLFNTVLVNKDPELGVGALPEHNQDAGPIVPKISGLERSQEKSQDCCKEPVFEPVVLKDPHPQLPQLPSQAQAEPQLQIPSPGPDLVPRTEAPPQFPPPSTQPAQGPPEAQLQPAPLPQVQQRPPRPQSPSHLLQQTLPPVQSHPSSQSLSQPLSAYNSSSLSLNSLSSRSSTPAKTQPAPPHISHHPSASPFPLSLPNHSPLHSFTPTLQPPAHSHHPNMFAPPTALPPPPPLTSGSLQVPGHPAGSTYSEQDILRQELNTRFLASQSADRGASLGPPPYLRTEFHQHQHQHQHTHQHTHQHTFTPFPHAIPPTAIMPTPAPPMFDKYPTKVDPFYRHSLFHSYPPAVSGIPPMIPPTGPFGSLQGAFQPKTSNPIDVAARPGTVPHTLLQKDPRLTDPFRPMLRKPGKWCAMHVHIAWQIYHHQQKVKKQMQSDPHKLDFGLKPEFLSRPPGPSLFGAIHHPHDLARPSTLFSAAGAAHPTGTPFGPPPHHSNFLNPAAHLEPFNRPSTFTGLAAVGGNAFGGLGNPSVTPNSVFGHKDSPSVQNFSNPHEPWNRLHRTPPSFPTPPPWLKPGELERSASAAAHDRDRDVDKRDSSVSKDDKERESVEKRHPSHPSPAPPVPVSALGHNRSSTDPTTRGHLNTEAREKDKPKEKERDHSGSRKDLTTEEHKAKESHLPERDGHSHEGRAAGEEPKQLSRVPSPYVRTPGVDSTRPNSTSSREAEPRKGEPAYENPKKNAEVKVKEERKEDHDLPTEAPQAHRTSEAPPPSSSASASVHPGPLASMPMTVGVTGIHAMNSIGSLDRTRMVTPFMGLSPIPGGERFPYPSFHWDPMRDPLRDPYRDLDMHRRDPLGRDFLLRNDPLHRLSTPRLYEADRSFRDREPHDYSHHHHHHHHPLAVDPRREHERGGHLDERERLHVLREDYEHPRLHPVHPASLDGHLPHPSLLTPGLPSMHYPRISPTAGHQNGLLNKTPPTAALSAPPPLISTLGGRPGSPRRTTPLSAEIRERPPSHTLKDIEAR

What was measured:
[1] = variants of: B1; settings: with ep300_human EP300, Q09472
Sequence of ep300_human EP300, Q09472 (Q09472 whole entry): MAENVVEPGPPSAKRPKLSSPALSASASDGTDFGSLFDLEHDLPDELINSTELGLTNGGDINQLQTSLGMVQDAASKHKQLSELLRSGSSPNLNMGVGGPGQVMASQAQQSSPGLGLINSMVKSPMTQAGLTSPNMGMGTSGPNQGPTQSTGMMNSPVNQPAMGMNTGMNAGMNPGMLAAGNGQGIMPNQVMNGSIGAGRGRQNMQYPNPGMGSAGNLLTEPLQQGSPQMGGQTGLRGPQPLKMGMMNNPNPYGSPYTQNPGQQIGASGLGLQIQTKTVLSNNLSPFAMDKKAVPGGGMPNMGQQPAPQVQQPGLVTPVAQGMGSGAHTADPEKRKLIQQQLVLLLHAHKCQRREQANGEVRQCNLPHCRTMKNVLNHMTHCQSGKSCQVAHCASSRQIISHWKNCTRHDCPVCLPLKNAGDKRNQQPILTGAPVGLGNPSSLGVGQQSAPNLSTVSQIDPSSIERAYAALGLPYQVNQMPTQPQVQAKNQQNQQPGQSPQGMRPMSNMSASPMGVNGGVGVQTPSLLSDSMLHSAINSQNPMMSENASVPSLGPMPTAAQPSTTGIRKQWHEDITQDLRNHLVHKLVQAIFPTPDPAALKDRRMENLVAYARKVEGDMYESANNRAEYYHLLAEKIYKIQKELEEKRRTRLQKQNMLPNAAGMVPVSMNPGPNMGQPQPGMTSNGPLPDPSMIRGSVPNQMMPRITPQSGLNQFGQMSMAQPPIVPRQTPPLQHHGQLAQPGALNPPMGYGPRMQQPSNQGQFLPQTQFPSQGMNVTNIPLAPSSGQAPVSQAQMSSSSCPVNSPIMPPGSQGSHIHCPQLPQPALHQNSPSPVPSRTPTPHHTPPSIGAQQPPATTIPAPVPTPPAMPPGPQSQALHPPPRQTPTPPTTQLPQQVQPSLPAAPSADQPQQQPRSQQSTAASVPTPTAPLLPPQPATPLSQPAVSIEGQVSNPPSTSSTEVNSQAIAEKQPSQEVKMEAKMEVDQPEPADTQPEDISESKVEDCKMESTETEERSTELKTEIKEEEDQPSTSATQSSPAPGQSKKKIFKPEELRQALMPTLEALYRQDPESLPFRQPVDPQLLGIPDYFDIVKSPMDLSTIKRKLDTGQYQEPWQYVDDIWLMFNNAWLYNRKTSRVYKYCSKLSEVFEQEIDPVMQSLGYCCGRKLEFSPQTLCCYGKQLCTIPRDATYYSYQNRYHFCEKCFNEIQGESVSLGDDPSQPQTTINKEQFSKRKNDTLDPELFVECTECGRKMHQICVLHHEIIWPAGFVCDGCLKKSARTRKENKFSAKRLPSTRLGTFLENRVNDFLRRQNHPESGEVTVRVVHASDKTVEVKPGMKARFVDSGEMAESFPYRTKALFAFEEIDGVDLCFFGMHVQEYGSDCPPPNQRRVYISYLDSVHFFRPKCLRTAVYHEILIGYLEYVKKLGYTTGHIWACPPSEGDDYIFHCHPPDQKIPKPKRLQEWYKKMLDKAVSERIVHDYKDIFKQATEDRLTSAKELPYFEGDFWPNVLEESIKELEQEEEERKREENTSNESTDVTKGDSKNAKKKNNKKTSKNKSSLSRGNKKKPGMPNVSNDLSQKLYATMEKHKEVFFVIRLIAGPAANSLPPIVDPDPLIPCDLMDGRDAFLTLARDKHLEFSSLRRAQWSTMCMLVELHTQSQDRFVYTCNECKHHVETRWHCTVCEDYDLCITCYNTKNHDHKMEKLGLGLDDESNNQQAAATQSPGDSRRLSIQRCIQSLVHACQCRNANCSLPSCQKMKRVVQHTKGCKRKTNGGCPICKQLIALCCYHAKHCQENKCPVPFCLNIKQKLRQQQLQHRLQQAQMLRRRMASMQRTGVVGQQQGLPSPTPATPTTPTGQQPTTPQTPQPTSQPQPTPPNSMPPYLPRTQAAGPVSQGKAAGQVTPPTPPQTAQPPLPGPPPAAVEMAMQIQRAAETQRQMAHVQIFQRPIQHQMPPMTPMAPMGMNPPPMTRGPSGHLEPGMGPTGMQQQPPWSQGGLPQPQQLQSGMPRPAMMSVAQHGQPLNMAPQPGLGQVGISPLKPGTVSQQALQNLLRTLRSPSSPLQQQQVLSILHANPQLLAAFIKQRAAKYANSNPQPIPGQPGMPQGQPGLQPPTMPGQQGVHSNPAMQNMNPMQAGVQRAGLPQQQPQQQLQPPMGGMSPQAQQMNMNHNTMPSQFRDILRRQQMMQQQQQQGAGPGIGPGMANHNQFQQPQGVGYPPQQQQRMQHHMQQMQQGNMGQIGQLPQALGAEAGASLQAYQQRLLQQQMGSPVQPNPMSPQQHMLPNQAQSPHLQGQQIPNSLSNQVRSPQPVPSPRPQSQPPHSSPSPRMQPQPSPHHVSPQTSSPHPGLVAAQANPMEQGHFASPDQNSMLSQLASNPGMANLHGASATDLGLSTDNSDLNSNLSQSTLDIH

[2] = variants of: B1; settings: with ring2_human RNF2, Q99496
Sequence of ring2_human RNF2, Q99496 (Q99496 whole entry): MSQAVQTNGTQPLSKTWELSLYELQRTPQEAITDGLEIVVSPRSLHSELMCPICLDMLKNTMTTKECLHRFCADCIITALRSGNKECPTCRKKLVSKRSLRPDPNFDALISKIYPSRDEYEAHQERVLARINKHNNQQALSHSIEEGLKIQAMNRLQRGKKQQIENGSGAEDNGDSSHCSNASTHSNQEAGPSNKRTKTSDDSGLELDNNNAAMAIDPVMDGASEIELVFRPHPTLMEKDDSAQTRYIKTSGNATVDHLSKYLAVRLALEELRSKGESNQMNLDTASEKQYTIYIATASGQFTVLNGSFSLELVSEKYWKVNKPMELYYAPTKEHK

[3] = variants of: B1; settings: with ep300_human EP300, Q09472; remark: listed apart in the source
[4] = variants of: B2; settings: with ep300_mouse Ep300, B2RWS6
[5] = variants of: B2; settings: with ring2_mouse Rnf2, Q9CQJ4
Sequence of ring2_mouse Rnf2, Q9CQJ4 (Q9CQJ4 whole entry): as the sequence (Q99496 whole entry) above, with M214V counted along it

[6] = variants of: B2; settings: with nf2l1_mouse Nfe2l1, Q61985
Sequence of nf2l1_mouse Nfe2l1, Q61985 (Q61985 whole entry): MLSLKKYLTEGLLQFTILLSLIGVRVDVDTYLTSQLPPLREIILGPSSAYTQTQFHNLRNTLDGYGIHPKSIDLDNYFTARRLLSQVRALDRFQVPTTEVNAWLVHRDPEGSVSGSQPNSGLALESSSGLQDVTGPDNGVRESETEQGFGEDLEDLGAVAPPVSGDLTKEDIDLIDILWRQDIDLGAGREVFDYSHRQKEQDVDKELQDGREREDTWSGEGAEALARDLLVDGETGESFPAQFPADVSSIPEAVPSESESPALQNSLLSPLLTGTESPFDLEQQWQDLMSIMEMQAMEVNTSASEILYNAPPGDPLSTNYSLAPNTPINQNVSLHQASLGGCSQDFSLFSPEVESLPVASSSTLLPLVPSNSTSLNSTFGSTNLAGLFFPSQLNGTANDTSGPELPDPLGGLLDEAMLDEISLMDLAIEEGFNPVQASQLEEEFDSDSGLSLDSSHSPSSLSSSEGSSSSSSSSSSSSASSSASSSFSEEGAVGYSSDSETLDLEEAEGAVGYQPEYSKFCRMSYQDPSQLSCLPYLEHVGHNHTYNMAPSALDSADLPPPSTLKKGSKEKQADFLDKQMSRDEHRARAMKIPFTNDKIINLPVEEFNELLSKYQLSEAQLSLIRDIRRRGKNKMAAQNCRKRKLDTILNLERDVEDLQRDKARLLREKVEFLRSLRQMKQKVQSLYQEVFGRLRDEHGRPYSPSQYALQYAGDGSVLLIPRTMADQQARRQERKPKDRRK

Variant	effect of a mutation on the interaction [1]	effect of a mutation on the interaction [2]	effect of a mutation on the interaction [3]	effect of a mutation on the interaction [4]	effect of a mutation on the interaction [5]	effect of a mutation on the interaction [6]
T534P	disrupting interaction	with no effect	–	–	–	–
P517L	decreasing interaction	increasing interaction	with no effect	–	–	–
T533P	–	–	–	disrupting interaction	with no effect	with no effect
